Reference: PMC8211825, “Molecular mechanism of calcium induced trimerization of C1q-like domain of otolin-1 from human and zebrafish” (Scientific Reports, 2021)

Target: the molecule itself
Assay: AUC; sedimentation velocity, c(s) analysis in SEDFIT; sevenfold (hOtolC1q forms) or 14-fold (dOtolC1q forms) molar excess of TbCl3; protein 0.20-0.25 mg/mL; self-association of the gC1q domain into trimers

Row | Protein | stoichiometry N
1 | dOtolC1q D432A (domain or fragment, zebrafish (Danio rerio), UniProt A5PN28 351-488, looked up, gC1q (C1q-like) domain of zebrafish otolin-1, UniProt A5PN28, with D432A; Same construct as m6 with the mutation) AVQKRSAFSVGLFPSRSFPPPGLPIRFDKIIYNEEAHWDPNASKFNCTHGGVYVFSYYITVRNRPLRAALVVNGIRKLRTRASLYGQDIDQASNMAVLRLSSGDQVWLETLRDWNGVYSSSEDDSTFSGFLLYADATK | 3
2 | dOtolC1q D432A D440A (domain or fragment, zebrafish (Danio rerio), UniProt A5PN28 351-488, looked up, gC1q (C1q-like) domain of zebrafish otolin-1, UniProt A5PN28, with D432A and D440A; Same construct as m6 with the two mutations; also called double mutant) AVQKRSAFSVGLFPSRSFPPPGLPIRFDKIIYNEEAHWDPNASKFNCTHGGVYVFSYYITVRNRPLRAALVVNGIRKLRTRASLYGQDIAQASNMAVLRLSSGDQVWLETLRDWNGVYSSSEDDSTFSGFLLYADATK | 3
3 | dOtolC1q D440A (domain or fragment, zebrafish (Danio rerio), UniProt A5PN28 351-488, looked up, gC1q (C1q-like) domain of zebrafish otolin-1, UniProt A5PN28, with D440A; Same construct as m6 with the mutation) AVQKRSAFSVGLFPSRSFPPPGLPIRFDKIIYNEEAHWDPNASKFNCTHGGVYVFSYYITVRNRPLRAALVVNGIRKLRTRDSLYGQDIAQASNMAVLRLSSGDQVWLETLRDWNGVYSSSEDDSTFSGFLLYADATK | 3
4 | hOtolC1q E417A (domain or fragment, human, UniProt A6NHN0 338-473, looked up, gC1q (C1q-like) domain of human otolin-1, UniProt A6NHN0, with E417A) ARVPRSAFSAGLSKPFPPPNIPIKFEKILYNDQGNYSPVTGKFNCSIPGTYVFSYHITVRGRPARISLVAQNKKQFKSRATLYGQEIDQASLLVILKLSAGDQVWLEVSKDWNGVYVSAEDDSIFTGFLLYPEETS | 3
5 | hOtolC1q E417A D425A (domain or fragment, human, UniProt A6NHN0 338-473, looked up, gC1q (C1q-like) domain of human otolin-1, UniProt A6NHN0, with E417A and D425A; also called double mutant) ARVPRSAFSAGLSKPFPPPNIPIKFEKILYNDQGNYSPVTGKFNCSIPGTYVFSYHITVRGRPARISLVAQNKKQFKSRATLYGQEIAQASLLVILKLSAGDQVWLEVSKDWNGVYVSAEDDSIFTGFLLYPEETS | 3
6 | hOtolC1q D425A (domain or fragment, human, UniProt A6NHN0 338-473, looked up, gC1q (C1q-like) domain of human otolin-1, UniProt A6NHN0, with D425A) ARVPRSAFSAGLSKPFPPPNIPIKFEKILYNDQGNYSPVTGKFNCSIPGTYVFSYHITVRGRPARISLVAQNKKQFKSRETLYGQEIAQASLLVILKLSAGDQVWLEVSKDWNGVYVSAEDDSIFTGFLLYPEETS | 3
